The values that follow come from US20130115676.

Experiment in all cases: cleavage_in_vitro
Data set [1] has as its system T1, SspI (Sphaerotilus species).
T1 sequence: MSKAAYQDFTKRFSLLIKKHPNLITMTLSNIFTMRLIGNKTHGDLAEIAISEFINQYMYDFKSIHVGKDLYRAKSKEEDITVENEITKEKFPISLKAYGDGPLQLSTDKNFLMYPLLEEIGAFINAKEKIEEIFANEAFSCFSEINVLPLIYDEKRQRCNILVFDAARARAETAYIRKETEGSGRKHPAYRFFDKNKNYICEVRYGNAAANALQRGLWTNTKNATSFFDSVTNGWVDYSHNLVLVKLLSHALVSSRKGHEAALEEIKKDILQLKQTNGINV
The conditions noted are these: NEB1, 10 mM MgCl2, 37 C.

The test system of data set [2] is T2, SbfI-HF K251A (Streptomyces species Bf-61?).
T2 sequence: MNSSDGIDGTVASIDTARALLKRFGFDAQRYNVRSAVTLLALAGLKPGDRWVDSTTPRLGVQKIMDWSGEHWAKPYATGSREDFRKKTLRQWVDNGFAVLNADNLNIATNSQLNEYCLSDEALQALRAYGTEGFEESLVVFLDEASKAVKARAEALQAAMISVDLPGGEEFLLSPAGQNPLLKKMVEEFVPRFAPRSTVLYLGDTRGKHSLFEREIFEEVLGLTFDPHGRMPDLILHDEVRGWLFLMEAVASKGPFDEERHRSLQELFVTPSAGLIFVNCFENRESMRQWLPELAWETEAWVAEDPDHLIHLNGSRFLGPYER
To be noted: NEB1, 10 mM MgCl2, 37 C.

Data set [3] has as its system T3, NcoI (Nocardia corallina).
T3 sequence: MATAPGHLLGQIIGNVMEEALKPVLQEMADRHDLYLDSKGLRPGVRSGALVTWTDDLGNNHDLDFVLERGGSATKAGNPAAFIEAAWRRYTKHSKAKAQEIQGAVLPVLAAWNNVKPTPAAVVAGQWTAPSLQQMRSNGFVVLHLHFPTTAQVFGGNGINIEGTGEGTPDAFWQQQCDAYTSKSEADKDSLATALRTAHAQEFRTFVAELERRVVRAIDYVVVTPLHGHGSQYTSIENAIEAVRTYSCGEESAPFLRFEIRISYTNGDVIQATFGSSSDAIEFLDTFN
The conditions noted are these: NEB1, 10 mM MgCl2, 37 C.

The target of data set [4] is T4, PstI-HF D91A (Providencia stuartii 164) (UniProt P00640).
T4 sequence: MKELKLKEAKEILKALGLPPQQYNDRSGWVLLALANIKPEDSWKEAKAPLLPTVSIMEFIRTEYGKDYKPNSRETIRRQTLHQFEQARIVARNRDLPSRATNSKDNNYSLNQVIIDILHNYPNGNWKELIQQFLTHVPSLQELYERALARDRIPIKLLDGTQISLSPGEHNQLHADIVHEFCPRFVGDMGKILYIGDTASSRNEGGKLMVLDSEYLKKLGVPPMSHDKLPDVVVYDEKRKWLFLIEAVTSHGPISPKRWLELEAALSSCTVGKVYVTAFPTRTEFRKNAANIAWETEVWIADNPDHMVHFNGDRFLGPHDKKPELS
The conditions noted are these: NEB4, 10 mM Mg acetate, 37 C.

Data set [5] addresses T5, ScaI-HF H193A/S201F (Streptomyces caespitosus) (UniProt O52691).
T5 sequence: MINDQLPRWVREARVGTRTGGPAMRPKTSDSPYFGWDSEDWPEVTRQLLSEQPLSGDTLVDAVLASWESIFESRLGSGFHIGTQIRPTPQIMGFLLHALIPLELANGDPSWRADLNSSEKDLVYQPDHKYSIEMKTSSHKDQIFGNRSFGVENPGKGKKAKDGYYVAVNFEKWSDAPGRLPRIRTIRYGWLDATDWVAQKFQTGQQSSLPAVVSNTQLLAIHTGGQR
The conditions noted are these: NEB4, 10 mM Mg acetate, 37 C.

The target of data set [6] is T6, HpaI (Haemophilus parainfluenzae) (UniProt P29537).
T6 sequence: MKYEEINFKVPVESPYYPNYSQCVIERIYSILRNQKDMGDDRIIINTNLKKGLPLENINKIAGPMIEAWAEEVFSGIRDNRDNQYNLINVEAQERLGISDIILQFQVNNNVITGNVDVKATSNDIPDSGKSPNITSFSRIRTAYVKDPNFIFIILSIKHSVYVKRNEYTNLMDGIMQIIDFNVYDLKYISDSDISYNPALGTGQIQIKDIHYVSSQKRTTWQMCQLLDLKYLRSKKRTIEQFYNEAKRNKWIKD
The conditions noted are these: NEB4, 10 mM Mg acetate, 37 C.

The target of data set [7] is T7, PstI (Providencia stuartii 164) (UniProt P00640).
T7 sequence: T4 sequence with A91D
The conditions noted are these: NEB3, 10 mM MgCl2, 37 C.

Data set [8] concerns T8, NcoI-HF A2T/R31A (Nocardia corallina).
T8 sequence: T3 sequence with A2T, R31A
To be noted: NEB4, 10 mM Mg acetate, 37 C.

For data set [9], the system named is T9, SbfI (Streptomyces species Bf-61?).
T9 sequence: T2 sequence with A251K
To be noted: NEB1, 10 mM MgCl2, 37 C.

Residue numbers refer to the chain shown, from its start. A value given as a limit tells only on which side of the number the result lay.

In the case of lambda DNA, the activity (fidelity index) was 64 in data set [1]; 1000 in data set [2]; 120 in data set [3]; 4000 in data set [4]; 1000 in [5]; 16 in data set [6]. The values for the activity (fidelity index) in data set [7], in [8] and in [9] were 120, more than 64000 and 32, respectively.
